Columns and labels:
S. cerevisiae 334 [1] = experiment: Mouse elongase MELO7 activity in yeast; assay type: cell-based, Saccharomyces cerevisiae; details: for amount of TPA: may not be significant
Procedure: The construct pRAE-87 was transformed into S. cerevisiae 334 (Hoveland et al., supra) and screened for elongase activity. The negative control strain was S. cerevisiae 334 containing pYX242 vector. The cultures were grown for 42-48 hours at 30° C., in selective media (Ausubel et al., supra), in the presence of 25 _M of GLA, AA, STA, EPA, DPA, or ADA. […] The levels of these fatty acids were 4.1% (DGLA), 6.33% (ADA), 3.4% (ETA), and 6.18% (DPA), respectively, of the total fatty acids in the strain containing the pRAE-87 sequence. […] MELO7 protein (MELO7) was not involved in the elongation of ADA. MELO7p also appeared to be involved in further elongation of the fatty acid DPA produced by two-carbon elongation to TPA when EPA was the added substrate, and when DPA was added. However, the small amounts of the product fatty acids (0.27% and 0.25% of TPA) may not be significant.

S. cerevisiae 334 [2] = experiment: T. aureum elongase TELO1 activity in yeast; assay type: cell-based, Saccharomyces cerevisiae
Procedure: The constructs pRAT-4-A1 through pRAT-4-D1 were transformed into S. cerevisiae 334 (Hoveland et al., supra) and screened for elongase activity. S. cerevisiae 334 containing the unaltered pYX242 vector was used as a negative control. The cultures were grown for 48 hours at 24° C., in selective media (Ausubel et al., supra), in the presence of 25 (3)M of GLA or EPA. In this study, DGLA or ω3-docosapentaenoic acid (DPA, 22:5n-3), respectively, was the predicted product of the elongase activity. […] This was expected in that the cDNA sequence of pRAT-4-A3 had several stops at the 5′ end of the sequence, which would result in a truncated version of the translated enzyme (FIG. 76). Although the DGLA level was very low for 334(pRAT-4-A2), the GLA level was the lowest in this sample; therefore, the conversion level of the fatty acid to its elongated form was significant at 28.4%. What was not expected was that there was definite substrate specificity among the expressed enzymes. […]
To further confirm the substrate specificity of TELO1p, the recombinant yeast strain 334(pRAT-4-A7) was grown in minimal media containing 25 μM of various PUFAs. […] The levels of these fatty acids were 1.07% (C20:2n-6), 5.84% (DGLA), and 0.76% (ADA), respectively, of the total fatty acids in the lysates of 334(pRAT-4-A7). […] TELO1p is also involved in the elongation of n-3 PUFAs ALA, STA, and EPA (FIG. 88). […] The levels of these fatty acids were 2.71% ETrA, 4.19% (ETA), and 1.99% (DPA), respectively, of the total fatty acids in the strain containing the TELO1 sequence. […] When STA was added as a substrate, there was also an accumulation of DTA in the culture. The level of this fatty acid was 0.74%, which represented 15.0% conversion of ETA, the two-carbon chain elongated product from substrate STA.

[3] = 25 μM STA added as a substrate, FIG. 88

B1: MELO7: second mouse PUFA elongation enzyme (SEQ ID NO:6), homologue of HSELO1, expressed from pRAE-87 (protein, listed as Mus musculus)
chain: MEHFDASLSTYFKAFLGPRDTRVKGWFLLDNYIPTFVCSVIYLLIVWLGPKYMKNRQPFSCRGILQLYNLGLTLLSLYMFYELVTGVWEGKYNFFCQGTRSAGESDMKIIRVLWWYYFSKLIEFMDTFFFILRKNNHQITVLHVYHHATMLNIWWFVMNWVPCGHSYFGATLNSFIHVLMYSYYGLSSIPSMRPYLWWKKYITQGQLVQFVLTIIQTTCGVFWPCSFPLGWLFFQIGYMISLIALFTNFYIQTYNKKGASRRKDHLKGHQNGSVAAVNGHTNSFPSLENSVKPRKQRKD
S. cerevisiae 334 [1]; DPA was added
  amount of TPA: 0.25%
S. cerevisiae 334 [1]; EPA was the added substrate
  amount of TPA: 0.27%
S. cerevisiae 334 [1]; substrate AA, FIG. 60
  conversion of AA to ADA: 36.0%
  level of ADA, of the total fatty acids: 6.33%
S. cerevisiae 334 [1]; substrate ADA
  elongation of ADA: not involved
S. cerevisiae 334 [1]; substrate EPA, FIG. 60
  conversion of EPA to DPA: 57.4%
  level of DPA, of the total fatty acids: 6.18%
S. cerevisiae 334 [1]; substrate GLA, 42-48 hours at 30° C., FIG. 60
  level of DGLA, of the total fatty acids: 4.1%
S. cerevisiae 334 [1]; substrate GLA, FIG. 60
  conversion of GLA to DGLA: 78.7%
S. cerevisiae 334 [1]; substrate STA, FIG. 60
  conversion of STA to ETA: 81.0%
  level of ETA, of the total fatty acids: 3.4%

B2: TELO1: Thraustochytrium aureum 7091 elongase (SEQ ID NO:7) from plasmid pRAT-4-A7 (protein, listed as Thraustochytrium aureum)
chain: MANSSVWDDVVGRVETGVDQWMDGAKPYALTDGLPMMDVSTMLAFEVGYMAMLLFGIPIMKQMEKPFELKTIKLLHNLFLFGLSLYMCVETIRQAILGGYKVFGNDMEKGNESHAQGMSRIVYVFYVSKAYEFLDTAIMILCKKFNQVSFLHVYHHATIFAIWWAIAKYAPGGDAYFSVILNSFVHTVMYAYYFFSSQGFGFVKPIKPYITTLQMTQFMAMLVQSLYDYLFPCDYPQALVQLLGVYMITLLALFGNFFVQSYLKKPKKSKTN
S. cerevisiae 334 [2]; 25 μM AA, FIG. 88
  conversion of AA to ADA: 3.5%
  level of ADA, of the total fatty acids: 0.76%
S. cerevisiae 334 [2]; 25 μM ALA, FIG. 88
  conversion of ALA to ETrA: 43.3%
  level of ETrA, of the total fatty acids: 2.71%
S. cerevisiae 334 [2]; 25 μM EPA, FIG. 88
  conversion of EPA to DPA: 11.5%
  level of DPA, of the total fatty acids: 1.99%
S. cerevisiae 334 [2]; 25 μM GLA, FIG. 88
  conversion of GLA to DGLA: 78.6%
  level of DGLA, of the total fatty acids: 5.84%
S. cerevisiae 334 [2]; 25 μM LA, FIG. 88
  conversion of LA to C20:2n-6: 23.2%
  level of C20:2n-6, of the total fatty acids: 1.07%
S. cerevisiae 334 [2]; [3]
  conversion of ETA to DTA: 15.0%
  level of DTA: 0.74%
S. cerevisiae 334 [2]; 25 μM STA, FIG. 88
  conversion of STA to ETA: 85.3%
  level of ETA, of the total fatty acids: 4.19%
S. cerevisiae 334 [2]; EPA added as a substrate, 48 hours at 24° C., FIG. 81
  levels of DPA: significant levels of DPA
